# Assay results as given in FireProtDB (doi:10.1093/protein/gzu024).
# Conditions: Homo sapiens; pH 7.4; 23 °C; GdnSCN; fluorescence; Potassium phosphate buffer; NaCl; transition: 2; reversible: yes; structure 1TEN
Substance,denaturant m value [kcal/mol/M],denaturant midpoint (higher = more stable) [M],unfolding free energy [kcal/mol]
"Tenascin, P24821 T888C E870C I833C S875C",4.17,1.79,7.44

# Same assay, conditions: Homo sapiens; pH 7.4; Thermal; DSC; Potassium phosphate buffer; NaCl; transition: 2; reversible: yes; structure 1TEN
Substance,Tm [°C],"change of melting temperature, mutant - wild type (higher = more stable) [°C]"
"Tenascin, P24821 D850K",63.7,5
"Tenascin, P24821 T888C E870C I833C S875C",80.6,
"Tenascin, P24821 E887I T890K D850K",80.5,21.8
"Tenascin, P24821 L820K",56.7,-2
"Tenascin, P24821 A885V",59.8,1.1
"Tenascin, P24821 V811C I821C",50.6,
"Tenascin, P24821 E887I",69.9,11.2
"Tenascin, P24821 Q808K",59.9,1.2
"Tenascin, P24821 T890K",63.9,5.2
"Tenascin, P24821 I833F",61,2.3
"Tenascin, P24821 E887I T890K",74.9,16.2
"Tenascin, P24821 E887I T890K D850K I833F",82.6,23.9
